# Laboratory results reported in PMC10786891, “Massively parallel profiling of RNA-targeting CRISPR-Cas13d”.
# T1: EsCas13d, nuclease-dead (Eubacterium siraeum, UniProt B0MS50, R295A;H300A;R849A;H854A)
# T1 sequence: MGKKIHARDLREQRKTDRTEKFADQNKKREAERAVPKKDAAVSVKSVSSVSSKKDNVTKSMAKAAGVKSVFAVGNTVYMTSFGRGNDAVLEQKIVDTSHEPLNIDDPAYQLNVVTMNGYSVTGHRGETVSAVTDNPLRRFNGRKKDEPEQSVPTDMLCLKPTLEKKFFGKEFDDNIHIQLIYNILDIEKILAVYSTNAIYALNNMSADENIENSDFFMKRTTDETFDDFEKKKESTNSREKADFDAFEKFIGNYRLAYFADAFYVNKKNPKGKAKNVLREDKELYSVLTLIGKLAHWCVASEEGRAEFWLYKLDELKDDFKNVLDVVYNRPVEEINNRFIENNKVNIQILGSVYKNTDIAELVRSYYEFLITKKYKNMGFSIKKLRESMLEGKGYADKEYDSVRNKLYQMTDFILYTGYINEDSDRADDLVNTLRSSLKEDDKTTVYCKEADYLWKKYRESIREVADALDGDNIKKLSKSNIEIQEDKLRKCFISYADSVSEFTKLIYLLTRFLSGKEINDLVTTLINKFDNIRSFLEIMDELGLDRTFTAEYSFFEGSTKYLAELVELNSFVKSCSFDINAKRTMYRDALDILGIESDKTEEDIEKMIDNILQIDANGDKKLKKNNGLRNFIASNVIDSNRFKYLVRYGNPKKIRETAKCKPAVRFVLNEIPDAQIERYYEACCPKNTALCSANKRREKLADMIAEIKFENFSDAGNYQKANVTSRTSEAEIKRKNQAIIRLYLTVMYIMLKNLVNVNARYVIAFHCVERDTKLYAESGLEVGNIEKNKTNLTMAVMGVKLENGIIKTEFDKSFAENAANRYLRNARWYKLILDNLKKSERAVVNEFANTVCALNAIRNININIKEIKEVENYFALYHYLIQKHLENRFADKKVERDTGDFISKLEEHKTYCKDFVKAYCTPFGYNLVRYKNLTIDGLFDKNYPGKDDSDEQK
# Biological target: T1, EsCas13d, nuclease-dead
# Assay: crRNA (strand 1, pre-loaded); Mg2+; 40 mM Tris-HCl pH 7.5, 150 mM NaCl, 6 mM MgCl2, 1 mM DTT, 0.1% Tween-20, 0.2 mg/ml BSA; 25 C; 10 min per concentration, then washed
# Settings: tags: His6-TwinStrep-SUMO cleaved; N-terminal SNAP kept (SNAP-Surface 488); label: 3' end held by stalled T7 RNA polymerase
row,Binder,Kd
1,target 2 MT 5'PFS AGC 3'PFS CGC (mixed) RNA 1: CACCCGUGCAAAAUUGCAGGGGUCUAAAACCUUCUCCAAAUUGUUUCAUCCU RNA 2: GGGAAUGGAUCCACAUCUACGAAUUCAGCAGGAUGAAACAAUUUGGAGAAGCGCAGAUCGGAAGAGCACACGU,7.5 ± 0.7 nM
2,target 2 MT 5'PFS GUC 3'PFS CAU (mixed) RNA 1: CACCCGUGCAAAAUUGCAGGGGUCUAAAACCUUCUCCAAAUUGUUUCAUCCU RNA 2: GGGAAUGGAUCCACAUCUACGAAUUCGUCAGGAUGAAACAAUUUGGAGAAGCAUAGAUCGGAAGAGCACACGU,10.3 ± 1.4 nM
3,target 2 MT 5'PFS AGC 3'PFS CGA (mixed) RNA 1: CACCCGUGCAAAAUUGCAGGGGUCUAAAACCUUCUCCAAAUUGUUUCAUCCU RNA 2: GGGAAUGGAUCCACAUCUACGAAUUCAGCAGGAUGAAACAAUUUGGAGAAGCGAAGAUCGGAAGAGCACACGU,15 ± 5 nM
4,target 2 MT 5'PFS AGC 3'PFS CGG (mixed) RNA 1: CACCCGUGCAAAAUUGCAGGGGUCUAAAACCUUCUCCAAAUUGUUUCAUCCU RNA 2: GGGAAUGGAUCCACAUCUACGAAUUCAGCAGGAUGAAACAAUUUGGAGAAGCGGAGAUCGGAAGAGCACACGU,5.8 ± 1 nM
5,target 2 MT 5'PFS UAU 3'PFS UGU (mixed) RNA 1: CACCCGUGCAAAAUUGCAGGGGUCUAAAACCUUCUCCAAAUUGUUUCAUCCU RNA 2: GGGAAUGGAUCCACAUCUACGAAUUCUAUAGGAUGAAACAAUUUGGAGAAGUGUAGAUCGGAAGAGCACACGU,29.1 ± 3.4 nM
6,"target 1 A9C,A16C (mixed) RNA 1: CACCCGUGCAAAAAUGCAGGGGUCUAAAACUGAGCGGAUAACCUCUCUAUGG RNA 2: GGGAAUGGAUCCACAUCUACGAAUUCGUACCAUAGCGAGGUUCUCCGCUCACCGAGAUCGGAAGAGCACACGU",86 ± 16 nM
7,target 2 MT 5'PFS CUU 3'PFS ACU (mixed) RNA 1: CACCCGUGCAAAAUUGCAGGGGUCUAAAACCUUCUCCAAAUUGUUUCAUCCU RNA 2: GGGAAUGGAUCCACAUCUACGAAUUCCUUAGGAUGAAACAAUUUGGAGAAGACUAGAUCGGAAGAGCACACGU,6.3 ± 0.9 nM
8,target 2 MT 5'PFS CAU 3'PFS AGA (mixed) RNA 1: CACCCGUGCAAAAUUGCAGGGGUCUAAAACCUUCUCCAAAUUGUUUCAUCCU RNA 2: GGGAAUGGAUCCACAUCUACGAAUUCCAUAGGAUGAAACAAUUUGGAGAAGAGAAGAUCGGAAGAGCACACGU,2.8 ± 0.6 nM
9,target 2 MT 5'PFS UGU 3'PFS CAG (mixed) RNA 1: CACCCGUGCAAAAUUGCAGGGGUCUAAAACCUUCUCCAAAUUGUUUCAUCCU RNA 2: GGGAAUGGAUCCACAUCUACGAAUUCUGUAGGAUGAAACAAUUUGGAGAAGCAGAGAUCGGAAGAGCACACGU,9 ± 0.9 nM
10,target 2 MT 5'PFS CUU 3'PFS ACG (mixed) RNA 1: CACCCGUGCAAAAUUGCAGGGGUCUAAAACCUUCUCCAAAUUGUUUCAUCCU RNA 2: GGGAAUGGAUCCACAUCUACGAAUUCCUUAGGAUGAAACAAUUUGGAGAAGACGAGAUCGGAAGAGCACACGU,4.4 ± 0.5 nM
11,target 2 MT 5'PFS CAU 3'PFS AGC (mixed) RNA 1: CACCCGUGCAAAAUUGCAGGGGUCUAAAACCUUCUCCAAAUUGUUUCAUCCU RNA 2: GGGAAUGGAUCCACAUCUACGAAUUCCAUAGGAUGAAACAAUUUGGAGAAGAGCAGAUCGGAAGAGCACACGU,3 ± 0.4 nM
12,target 2 MT 5'PFS CUU 3'PFS ACA (mixed) RNA 1: CACCCGUGCAAAAUUGCAGGGGUCUAAAACCUUCUCCAAAUUGUUUCAUCCU RNA 2: GGGAAUGGAUCCACAUCUACGAAUUCCUUAGGAUGAAACAAUUUGGAGAAGACAAGAUCGGAAGAGCACACGU,4.9 ± 0.6 nM
13,target 2 MT 5'PFS UAU 3'PFS UGA (mixed) RNA 1: CACCCGUGCAAAAUUGCAGGGGUCUAAAACCUUCUCCAAAUUGUUUCAUCCU RNA 2: GGGAAUGGAUCCACAUCUACGAAUUCUAUAGGAUGAAACAAUUUGGAGAAGUGAAGAUCGGAAGAGCACACGU,37 ± 9 nM
14,target 2 MT 5'PFS CUU 3'PFS ACC (mixed) RNA 1: CACCCGUGCAAAAUUGCAGGGGUCUAAAACCUUCUCCAAAUUGUUUCAUCCU RNA 2: GGGAAUGGAUCCACAUCUACGAAUUCCUUAGGAUGAAACAAUUUGGAGAAGACCAGAUCGGAAGAGCACACGU,10.5 ± 2.2 nM
15,target 2 MT 5'PFS UAU 3'PFS UGC (mixed) RNA 1: CACCCGUGCAAAAUUGCAGGGGUCUAAAACCUUCUCCAAAUUGUUUCAUCCU RNA 2: GGGAAUGGAUCCACAUCUACGAAUUCUAUAGGAUGAAACAAUUUGGAGAAGUGCAGAUCGGAAGAGCACACGU,30 ± 6 nM
16,target 2 MT 5'PFS GUA 3'PFS CAG (mixed) RNA 1: CACCCGUGCAAAAUUGCAGGGGUCUAAAACCUUCUCCAAAUUGUUUCAUCCU RNA 2: GGGAAUGGAUCCACAUCUACGAAUUCGUAAGGAUGAAACAAUUUGGAGAAGCAGAGAUCGGAAGAGCACACGU,9.6 ± 1.1 nM
17,"target 1 G5A,A20C (mixed) RNA 1: CACCCGUGCAAAAAUGCAGGGGUCUAAAACUGAGCGGAUAACCUCUCUAUGG RNA 2: GGGAAUGGAUCCACAUCUACGAAUUCGUACCCUAGAGAGGUUAUCCACUCACCGAGAUCGGAAGAGCACACGU",88 ± 13 nM
18,target 2 MT 5'PFS GAG 3'PFS AGA (mixed) RNA 1: CACCCGUGCAAAAUUGCAGGGGUCUAAAACCUUCUCCAAAUUGUUUCAUCCU RNA 2: GGGAAUGGAUCCACAUCUACGAAUUCGAGAGGAUGAAACAAUUUGGAGAAGAGAAGAUCGGAAGAGCACACGU,4.9 ± 0.5 nM
19,target 2 MT 5'PFS GAG 3'PFS AGC (mixed) RNA 1: CACCCGUGCAAAAUUGCAGGGGUCUAAAACCUUCUCCAAAUUGUUUCAUCCU RNA 2: GGGAAUGGAUCCACAUCUACGAAUUCGAGAGGAUGAAACAAUUUGGAGAAGAGCAGAUCGGAAGAGCACACGU,5.7 ± 0.7 nM
20,target 2 MT 5'PFS GAG 3'PFS CGU (mixed) RNA 1: CACCCGUGCAAAAUUGCAGGGGUCUAAAACCUUCUCCAAAUUGUUUCAUCCU RNA 2: GGGAAUGGAUCCACAUCUACGAAUUCGAGAGGAUGAAACAAUUUGGAGAAGCGUAGAUCGGAAGAGCACACGU,9.4 ± 0.9 nM
21,target 2 MT 5'PFS CGA 3'PFS UUA (mixed) RNA 1: CACCCGUGCAAAAUUGCAGGGGUCUAAAACCUUCUCCAAAUUGUUUCAUCCU RNA 2: GGGAAUGGAUCCACAUCUACGAAUUCCGAAGGAUGAAACAAUUUGGAGAAGUUAAGAUCGGAAGAGCACACGU,9 ± 1.7 nM
22,target 2 MT 5'PFS CGA 3'PFS CUU (mixed) RNA 1: CACCCGUGCAAAAUUGCAGGGGUCUAAAACCUUCUCCAAAUUGUUUCAUCCU RNA 2: GGGAAUGGAUCCACAUCUACGAAUUCCGAAGGAUGAAACAAUUUGGAGAAGCUUAGAUCGGAAGAGCACACGU,8.3 ± 1.1 nM
23,target 2 MT 5'PFS UUG 3'PFS CGC (mixed) RNA 1: CACCCGUGCAAAAUUGCAGGGGUCUAAAACCUUCUCCAAAUUGUUUCAUCCU RNA 2: GGGAAUGGAUCCACAUCUACGAAUUCUUGAGGAUGAAACAAUUUGGAGAAGCGCAGAUCGGAAGAGCACACGU,15.9 ± 1.5 nM
24,target 2 MT 5'PFS UUG 3'PFS CGA (mixed) RNA 1: CACCCGUGCAAAAUUGCAGGGGUCUAAAACCUUCUCCAAAUUGUUUCAUCCU RNA 2: GGGAAUGGAUCCACAUCUACGAAUUCUUGAGGAUGAAACAAUUUGGAGAAGCGAAGAUCGGAAGAGCACACGU,11.4 ± 1 nM
